*1 amine or outer side, *2 acyl side, *3 side chain or, on linkers, in order; H or OH if unused. Bridges are numbered along the chain shown (N, C = ends). Roman numbers before positions name the chains, in order. Primed or numbered codes have the meaning given here. Where no end group is shown, it is not given here. Side-chain parts run from the residue outwards. The star is where a group is joined. ivDde′ = (4,4-dimethyl-2,6-dioxocyclohex-1-ylidene)-3-methylbutyl protecting group, CC(C)CC(=C1C(=O)CC(C)(C)CC1=O)*; Biotin = O=C1N[C@H]2[C@H](CS[C@H]2CCCCC(=O)*)N1; Glutaryl = O=C(CCCC(=O)[*:2])[*:1]; AEEA = NCCOCCOCC(=O)O
Assays:
[1] = molecular target: KDR on human umbilical vein endothelial cells (HUVECs) (human, UniProt P35968 20-1356); assay: cell-based or functional assay
Chain of KDR on human umbilical vein endothelial cells (HUVECs) (P35968 20-1356): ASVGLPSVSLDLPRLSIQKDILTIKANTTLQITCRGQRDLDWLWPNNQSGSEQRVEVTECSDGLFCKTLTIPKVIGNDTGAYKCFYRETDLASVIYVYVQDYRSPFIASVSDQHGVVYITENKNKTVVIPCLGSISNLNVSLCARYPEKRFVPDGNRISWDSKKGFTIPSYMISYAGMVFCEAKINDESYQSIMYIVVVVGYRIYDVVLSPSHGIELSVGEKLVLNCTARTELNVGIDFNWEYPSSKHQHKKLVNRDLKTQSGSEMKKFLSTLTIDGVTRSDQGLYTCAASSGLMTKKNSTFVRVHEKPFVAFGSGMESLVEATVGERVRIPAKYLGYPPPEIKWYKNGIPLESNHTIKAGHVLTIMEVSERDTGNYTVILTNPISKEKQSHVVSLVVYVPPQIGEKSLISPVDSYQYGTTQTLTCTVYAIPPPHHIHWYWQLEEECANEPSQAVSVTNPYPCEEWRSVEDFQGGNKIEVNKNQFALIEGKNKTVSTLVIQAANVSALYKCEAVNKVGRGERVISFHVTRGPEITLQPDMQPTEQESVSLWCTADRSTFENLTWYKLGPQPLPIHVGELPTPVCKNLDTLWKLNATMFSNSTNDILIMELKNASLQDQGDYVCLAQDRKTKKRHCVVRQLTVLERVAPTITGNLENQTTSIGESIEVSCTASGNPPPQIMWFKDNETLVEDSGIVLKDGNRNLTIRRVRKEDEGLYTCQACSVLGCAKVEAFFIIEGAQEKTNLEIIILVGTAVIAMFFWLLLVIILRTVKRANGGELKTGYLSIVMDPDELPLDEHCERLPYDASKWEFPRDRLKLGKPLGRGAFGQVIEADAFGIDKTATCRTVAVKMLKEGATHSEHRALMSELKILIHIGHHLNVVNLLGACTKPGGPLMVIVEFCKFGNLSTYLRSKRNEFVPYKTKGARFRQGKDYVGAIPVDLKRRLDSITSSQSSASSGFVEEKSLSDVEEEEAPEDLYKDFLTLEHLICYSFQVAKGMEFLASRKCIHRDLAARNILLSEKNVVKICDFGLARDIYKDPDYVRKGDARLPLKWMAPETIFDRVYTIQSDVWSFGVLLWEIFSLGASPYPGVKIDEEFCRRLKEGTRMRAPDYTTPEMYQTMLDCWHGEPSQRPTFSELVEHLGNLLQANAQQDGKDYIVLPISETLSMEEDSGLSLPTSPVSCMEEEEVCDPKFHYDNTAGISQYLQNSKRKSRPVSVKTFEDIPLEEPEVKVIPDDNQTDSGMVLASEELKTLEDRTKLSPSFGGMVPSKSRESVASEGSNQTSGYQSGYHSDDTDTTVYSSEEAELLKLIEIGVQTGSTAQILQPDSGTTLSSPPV

[2] = molecular target: KDR (full-length receptor) expressed on transiently transfected 293H cells (human) (UniProt P35968); assay: competition with 300 pM 125I-VEGF on KDR-transfected 293H cells; peptide 0.3 µM
Chain of KDR (full-length receptor) expressed on transiently transfected 293H cells (human) (P35968 20-1356): as above

[3] = molecular target: KDR (full-length receptor) expressed on transiently transfected 293H cells (human) (UniProt P35968); assay: competition with 300 pM 125I-VEGF on KDR-transfected 293H cells; peptide 30 µM
Soluble KDR receptor = Soluble KDR receptor (UniProt P35968 20-764, limits assumed); assay: SPR (Biacore 3000), soluble KDR on CM5
Chain of Soluble KDR receptor (P35968 20-764 limits assumed): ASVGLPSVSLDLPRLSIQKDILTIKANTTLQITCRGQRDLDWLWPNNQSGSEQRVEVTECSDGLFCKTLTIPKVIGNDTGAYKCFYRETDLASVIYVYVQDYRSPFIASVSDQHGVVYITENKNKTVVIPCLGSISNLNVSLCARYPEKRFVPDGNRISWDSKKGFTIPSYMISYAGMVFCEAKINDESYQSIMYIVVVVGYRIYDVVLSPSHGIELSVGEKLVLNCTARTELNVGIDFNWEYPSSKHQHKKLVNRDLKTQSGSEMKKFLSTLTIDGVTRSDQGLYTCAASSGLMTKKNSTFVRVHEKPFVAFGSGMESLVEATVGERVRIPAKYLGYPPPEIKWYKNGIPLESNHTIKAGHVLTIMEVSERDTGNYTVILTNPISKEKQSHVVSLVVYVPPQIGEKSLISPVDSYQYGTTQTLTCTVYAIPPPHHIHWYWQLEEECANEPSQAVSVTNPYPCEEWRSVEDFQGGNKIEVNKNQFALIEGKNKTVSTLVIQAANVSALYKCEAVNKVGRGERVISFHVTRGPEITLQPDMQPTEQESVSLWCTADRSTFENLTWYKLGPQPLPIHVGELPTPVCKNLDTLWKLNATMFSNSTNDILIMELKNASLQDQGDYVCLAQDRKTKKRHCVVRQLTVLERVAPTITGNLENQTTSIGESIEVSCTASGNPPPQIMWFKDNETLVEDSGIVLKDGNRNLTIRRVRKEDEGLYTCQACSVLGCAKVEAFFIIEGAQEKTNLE

B1: P3-D (peptide)
peptide: Ac-AGWLECYAEFGHCYNFGTGGGK-NH2
modifications: disulfide 6-13
SMILES: CC(=O)N[C@@H](C)C(=O)NCC(=O)N[C@@H](Cc1c[nH]c2ccccc12)C(=O)N[C@@H](CC(C)C)C(=O)N[C@@H](CCC(=O)O)C(=O)N[C@H]1CSSC[C@@H](C(=O)N[C@@H](Cc2ccc(O)cc2)C(=O)N[C@@H](CC(N)=O)C(=O)N[C@@H](Cc2ccccc2)C(=O)NCC(=O)N[C@H](C(=O)NCC(=O)NCC(=O)NCC(=O)N[C@@H](CCCCN)C(N)=O)[C@@H](C)O)NC(=O)[C@H](Cc2c[nH]cn2)NC(=O)CNC(=O)[C@H](Cc2ccccc2)NC(=O)[C@H](CCC(=O)O)NC(=O)[C@H](C)NC(=O)[C@H](Cc2ccc(O)cc2)NC1=O
B1 was tested, and the “inhibition of VEGF-induced KDR phosphorylation” value [1] was at least 50 % inhibition at 10 µM.

B2: P11-D (peptide)
peptide: Ac-AQGDYVYWEIIELTGATDHTPPGGGK-NH2
With B2 the “inhibition of VEGF-induced KDR phosphorylation” value [1] was at least 50 % inhibition at 10 µM.

B3: P12-XB (peptide)
peptide: Ac-AGPTWCEDDWYYCWLFGTGGGK([AEEA-AEEA-Biotin])-NH2
modifications: disulfide 6-13
SMILES: CC(=O)N[C@@H](C)C(=O)NCC(=O)N1CCC[C@H]1C(=O)N[C@H](C(=O)N[C@@H](Cc1c[nH]c2ccccc12)C(=O)N[C@H]1CSSC[C@@H](C(=O)N[C@@H](Cc2c[nH]c3ccccc23)C(=O)N[C@@H](CC(C)C)C(=O)N[C@@H](Cc2ccccc2)C(=O)NCC(=O)N[C@H](C(=O)NCC(=O)NCC(=O)NCC(=O)N[C@@H](CCCCNC(=O)COCCOCCNC(=O)COCCOCCNC(=O)CCCC[C@@H]2SC[C@@H]3NC(=O)N[C@@H]32)C(N)=O)[C@@H](C)O)NC(=O)[C@H](Cc2ccc(O)cc2)NC(=O)[C@H](Cc2ccc(O)cc2)NC(=O)[C@H](Cc2c[nH]c3ccccc23)NC(=O)[C@H](CC(=O)O)NC(=O)[C@H](CC(=O)O)NC(=O)[C@H](CCC(=O)O)NC1=O)[C@@H](C)O
In the case of B3, the % inhibition of 125I-VEGF binding [2] is reported as 81%, the % inhibition of 125I-VEGF binding [3] is reported as 104% and the “IC50, receptor activation assay” value [1] is reported as 0.1 µM.

B4: P8-D (peptide)
peptide: Ac-GDPDTCTMWGDSGRWYCFPADPGGGK-NH2
modifications: disulfide 6-17
SMILES: CSCC[C@@H]1NC(=O)[C@H]([C@@H](C)O)NC(=O)[C@@H](NC(=O)[C@@H](NC(=O)[C@H](CC(=O)O)NC(=O)[C@@H]2CCCN2C(=O)[C@H](CC(=O)O)NC(=O)CNC(C)=O)[C@@H](C)O)CSSC[C@@H](C(=O)N[C@@H](Cc2ccccc2)C(=O)N2CCC[C@H]2C(=O)N[C@@H](C)C(=O)N[C@@H](CC(=O)O)C(=O)N2CCC[C@H]2C(=O)NCC(=O)NCC(=O)NCC(=O)N[C@@H](CCCCN)C(N)=O)NC(=O)[C@H](Cc2ccc(O)cc2)NC(=O)[C@H](Cc2c[nH]c3ccccc23)NC(=O)[C@H](CCCNC(=N)N)NC(=O)CNC(=O)[C@H](CO)NC(=O)[C@H](CC(=O)O)NC(=O)CNC(=O)[C@H](Cc2c[nH]c3ccccc23)NC1=O
With B4 the “inhibition of VEGF-induced KDR phosphorylation” value [1] was at least 50 % inhibition at 10 µM.

B5: D1 (peptide)
peptide 1: AGPTWCEDDWYYCWLFGTGGGK
peptide 2: VCWEDSWGGEVCFRYDPGGGK
modifications: linker (positions not given here) via Glutaryl; disulfide I:6-I:13, II:2-II:12; also: two chains linked by a glutaryl linker, exact groups only in a drawing
With B5 the “IC50, receptor activation assay” value [1] was 0.0005 to 0.001 µM.

B6: Head-to-head dimer (P9/P10 heterodimer) (peptide)
peptide 1: AQEPEGYAYWEVITLYHEEDGDGG
peptide 2: AQAFPRFGGDDYWIQQYLRYTDGG
modifications: bridge I:N-II:N; not fully specified (N-terminus); also: head-to-head heterodimer, N-termini joined by oxime
notes: also called H-H dimer
For B6, the “fold increase in affinity over P10” value (Soluble KDR receptor) was over 560 fold.

B7: P6 (peptide)
peptide: GDSRVCWEDSWGGEVCFRYDP
Binder B7 has a % inhibition of 125I-VEGF binding [2] of 52.3% and a % inhibition of 125I-VEGF binding [3] of 96.3%.

B8: P7-E (peptide)
peptide: Ac-GDWWECK(ivDde′)REEYRNTTWCAWADPGGGK-NH2
modifications: disulfide 6-17
SMILES: CC(=O)NCC(=O)N[C@@H](CC(=O)O)C(=O)N[C@@H](Cc1c[nH]c2ccccc12)C(=O)N[C@@H](Cc1c[nH]c2ccccc12)C(=O)N[C@@H](CCC(=O)O)C(=O)N[C@H]1CSSC[C@@H](C(=O)N[C@@H](C)C(=O)N[C@@H](Cc2c[nH]c3ccccc23)C(=O)N[C@@H](C)C(=O)N[C@@H](CC(=O)O)C(=O)N2CCC[C@H]2C(=O)NCC(=O)NCC(=O)NCC(=O)N[C@@H](CCCCN)C(N)=O)NC(=O)[C@H](Cc2c[nH]c3ccccc23)NC(=O)[C@H]([C@@H](C)O)NC(=O)[C@H]([C@@H](C)O)NC(=O)[C@H](CC(N)=O)NC(=O)[C@H](CCCNC(=N)N)NC(=O)[C@H](Cc2ccc(O)cc2)NC(=O)[C@H](CCC(=O)O)NC(=O)[C@H](CCC(=O)O)NC(=O)[C@H](CCCNC(=N)N)NC(=O)[C@H](CCCCNC(CC(C)C)=C2C(=O)CC(C)(C)CC2=O)NC1=O
With B8 the “inhibition of VEGF-induced KDR phosphorylation” value [1] was at least 50 % inhibition at 10 µM.
